We go through one molecule from US20140186823, “MUTANT PORES” (OXFORD NANOPORE TECHNOLOGIES LIMITED, published 2014).

What all share (settings): chain copies: 8 (stated)
For one series, the target named is MS-(B1-L88S)8 (Mycobacterium smegmatis, UniProt A0QR29 SEQ:1-184, L88S). Nature of the series: mean S.D. of current levels (B1 baseline 3.26).
For a further series, the target named is MS-(B1-L88N)8 (Mycobacterium smegmatis, UniProt A0QR29 SEQ:1-184, L88N). The experiment in a line: mean S.D. of current levels (B1 baseline 3.26).
In the next series the target is MS-(B1-L88Q)8 (Mycobacterium smegmatis, UniProt A0QR29 SEQ:1-184, L88Q). Nature of the series: mean S.D. of current levels (B1 baseline 3.26).
A further series addresses MS-(B1-N86T)8 (Mycobacterium smegmatis, UniProt A0QR29 SEQ:1-184, N86T). The experiment in a line: current range; Phi29 unzipping, +180 mV.
In another series the target is MS-(B1-D90Q)8 (Mycobacterium smegmatis, UniProt A0QR29 SEQ:1-184, N90Q). The experiment in a line: current range; Phi29 unzipping, +180 mV.
A further series has as its target MS-(B1-S103G)8 (Mycobacterium smegmatis, UniProt A0QR29 SEQ:1-184, S103G). Nature of the series: current range; Phi29 unzipping, +180 mV.
A further series deals with MS-(B1-I105L)8 (Mycobacterium smegmatis, UniProt A0QR29 SEQ:1-184, I105L). The experiment in a line: current range; Phi29 unzipping, +180 mV.
Another series has as its target MS-(B1-I105Y)8 (Mycobacterium smegmatis, UniProt A0QR29 SEQ:1-184, I105Y). The experiment in a line: current range; Phi29 unzipping, +180 mV.
The next series deals with MS-(B1-I89Y-D90S)8 (Mycobacterium smegmatis, UniProt A0QR29 SEQ:1-184, I89Y,N90S). Nature of the series: current range; Phi29 unzipping, +180 mV.

Description for MS-(B1-D90Q)8: (§1) The runs were conducted at room temperature at an applied potential of +180 mV. Current levels observed when the DNA is in the enzyme bound state were indexed and the current level, its duration and variance were recorded.
(§2) This pre-incubation mix was added to 900 μL of buffer in the cis compartment of the electrophysiology chamber to initiate capture of the polymerase-DNA complexes in the MspA nanopore (to give final concentrations of DNA=0.5 nM, Enzyme=0.1 μM). Experiments were carried out at a constant potential of +180 mV. Current levels observed when the DNA is in the enzyme bound state were indexed and the current level, its duration and variance were recorded.
Description for MS-(B1-I105L)8: as §1, §2
Description for MS-(B1-I105Y)8: as §1, §2
Description for MS-(B1-I89Y-D90S)8: as §1, §2
Description for MS-(B1-L88N)8: as §2
Description for MS-(B1-L88Q)8: as §2
Description for MS-(B1-L88S)8: as §2
Description for MS-(B1-N86T)8: as §1, §2
Description for MS-(B1-S103G)8: as §1, §2

B1: FIG. 12 DNA substrate (dsDNA)
DNA 1: TTTTTTTTTTTTTTTTTTTTTCCCCCCCCCCCCCCTATTCTGTTTATGTTTCTTGTTTGTTAGCCCCCTTTGATAAGACAAATACAAAGAACAAACAATCGGCCCTTTAGTGGAGCGAGTGCGAGAGGCGAGCGGTCAA
DNA 2: GTATCTCCATCGCTGTTGACCGCTCGCCTCTCGCACTCGCTCCACTAAAGGGCCGATTGTTTGTTCTTTGTATTTGTCTTATCAAAGGGGGCTAACAAACAAGAAACATAAACAGAATAG
DNA 3: CAGCGATGGAGATAC
modifications: iSp9 and 3' Cholesteryl-TEG on SEQ 23
Take B1: the activity with MS-(B1-L88S)8 came out at 3.12; with MS-(B1-L88N)8 it was 3.22; with MS-(B1-L88Q)8, 3.3; with MS-(B1-N86T)8 it was 58 pA; with MS-(B1-D90Q)8 it was 70 pA; with MS-(B1-S103G)8 it was 54 pA. Moreover, the activity with MS-(B1-I105L)8 was determined as 42 pA; in the series with MS-(B1-I105Y)8 it was 45 pA; with MS-(B1-I89Y-D90S)8 it was 67 pA.
